# Experimental data: the supplement of paper PMC9112550, “Optimization of the antimicrobial peptide Bac7 by deep mutational scanning” (BMC Biology, 2022)
# System: Escherichia coli TOP10
# Assay: shrunken log2 fold change of peptide-encoding DNA abundance (4.5 h post-induction vs induction); higher = less antimicrobial activity (less host growth inhibition)
# Conditions: time post-induction: 4.5 h; library: site-saturation at positions 5, 18, 19, 20
# 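Also: peptides expressed intracellularly from a pBAD plasmid library in pooled LB shake-flask culture, induced with 0.3% L-arabinose, DNA abundance read by NGS, three biological replicates, DESeq2 with apeglm shrinkage.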
row,Sequence,shrunken log2 fold change
1,RRIRQRPPRLPRPRPRPYKGPRP,-0.0872
2,RRIRQRPPRLPRPRPRPYLGPRP,-0.0158
3,RRIRQRPPRLPRPRPRPYLLPRP,-0.0483
4,RRIRQRPPRLPRPRPRPYLQPRP,0.000139
5,RRIRQRPPRLPRPRPRPYNKPRP,-0.403
6,RRIRQRPPRLPRPRPRPYNYPRP,-1.44
7,RRIRQRPPRLPRPRPRPYRSPRP,-0.0119
8,RRIRQRPPRLPRPRPRPYSQPRP,-0.195
9,RRIRQRPPRLPRPRPRPYTRPRP,-0.0062
10,RRIRQRPPRLPRPRPRPYVHPRP,-0.258
11,RRIRQRPPRLPRPRPRPYVQPRP,-0.00748
12,RRIRQRPPRLPRPRPRPYWCPRP,-0.164
13,RRIRQRPPRLPRPRPRPYYQPRP,-0.284
14,RRIRRRPPRLPRPRPRPAAQPRP,0.462
15,RRIRRRPPRLPRPRPRPAASPRP,0.38
16,RRIRRRPPRLPRPRPRPACPPRP,0.353
17,RRIRRRPPRLPRPRPRPACQPRP,0.835
18,RRIRRRPPRLPRPRPRPACWPRP,0.626
19,RRIRRRPPRLPRPRPRPADMPRP,-0.0139
20,RRIRRRPPRLPRPRPRPAEDPRP,0.987

row,Sequence,shrunken log2 fold change
1,RRIRRRPPRLPRPRPRPAICPRP,0.134
2,RRIRRRPPRLPRPRPRPAKNPRP,0.279
3,RRIRRRPPRLPRPRPRPANVPRP,-0.15
4,RRIRRRPPRLPRPRPRPAQKPRP,0.547
5,RRIRRRPPRLPRPRPRPAQYPRP,0.34
6,RRIRRRPPRLPRPRPRPARGPRP,0.731
7,RRIRRRPPRLPRPRPRPASTPRP,-0.0241
8,RRIRRRPPRLPRPRPRPATGPRP,0.222
9,RRIRRRPPRLPRPRPRPAVMPRP,0.0975
10,RRIRRRPPRLPRPRPRPAVVPRP,0.518
11,RRIRRRPPRLPRPRPRPAYAPRP,-0.0409
12,RRIRRRPPRLPRPRPRPAYNPRP,-0.28
13,RRIRRRPPRLPRPRPRPAYQPRP,-0.289
14,RRIRRRPPRLPRPRPRPCALPRP,-0.22
15,RRIRRRPPRLPRPRPRPCEEPRP,0.218
16,RRIRRRPPRLPRPRPRPCFAPRP,0.442
17,RRIRRRPPRLPRPRPRPCFDPRP,0.1
18,RRIRRRPPRLPRPRPRPCFFPRP,0.0648
19,RRIRRRPPRLPRPRPRPCGHPRP,-0.0448
20,RRIRRRPPRLPRPRPRPCGNPRP,0.0466

row,Sequence,shrunken log2 fold change
1,RRIRRRPPRLPRPRPRPCIFPRP,-0.0526
2,RRIRRRPPRLPRPRPRPCILPRP,-0.208
3,RRIRRRPPRLPRPRPRPCKMPRP,-0.0577
4,RRIRRRPPRLPRPRPRPCKWPRP,-0.0414
5,RRIRRRPPRLPRPRPRPCMHPRP,0.105
6,RRIRRRPPRLPRPRPRPCMLPRP,-0.151
7,RRIRRRPPRLPRPRPRPCMQPRP,0.23
8,RRIRRRPPRLPRPRPRPCPWPRP,-0.0433
9,RRIRRRPPRLPRPRPRPCSSPRP,0.0589
10,RRIRRRPPRLPRPRPRPCTEPRP,0.106
11,RRIRRRPPRLPRPRPRPCVSPRP,0.0908
12,RRIRRRPPRLPRPRPRPCWDPRP,0.234
13,RRIRRRPPRLPRPRPRPCYGPRP,-0.214
14,RRIRRRPPRLPRPRPRPCYWPRP,0.00692
15,RRIRRRPPRLPRPRPRPDAGPRP,0.307
16,RRIRRRPPRLPRPRPRPDCKPRP,-0.176
17,RRIRRRPPRLPRPRPRPDDGPRP,-0.147
18,RRIRRRPPRLPRPRPRPDEGPRP,-0.00319
19,RRIRRRPPRLPRPRPRPDFHPRP,-0.111
20,RRIRRRPPRLPRPRPRPDFNPRP,-0.155
